Measurements: PMC6497308

Assay: Western blot densitometry of ATP1B2 in HEK293
Conditions: glycan lost; control: normal ATP1B2

Protein | expression_or_secretion
ATP1B2 (Na/K-ATPase β2 subunit): N96Q (protein) parent chain: MVIQKEKKSCGQVVEEWKEFVWNPRTHQFMGRTGTSWAFILLFYLVFYGFLTAMFTLTMWVMLQTVSDHTPKYQDRLATPGLMIRPKTENLDVIVNVSDTESWDQHVQKLNKFLEPYNDSIQAQKNDVCRPGRYYEQPDNGVLNYPKRACQFNRTQLGNCSGIGDSTHYGYSTGQPCVFIKMNRVINFYAGANQSMNVTCAGKRDEDAENLGNFVMFPANGNIDLMYFPYYGKKFHVNYTQPLVAVKFLNVTPNVEVNVECRINAANIATDDERDKFAGRVAFKLRINKT | no change
ATP1B2 (Na/K-ATPase β2 subunit): N197Q (protein) parent chain: MVIQKEKKSCGQVVEEWKEFVWNPRTHQFMGRTGTSWAFILLFYLVFYGFLTAMFTLTMWVMLQTVSDHTPKYQDRLATPGLMIRPKTENLDVIVNVSDTESWDQHVQKLNKFLEPYNDSIQAQKNDVCRPGRYYEQPDNGVLNYPKRACQFNRTQLGNCSGIGDSTHYGYSTGQPCVFIKMNRVINFYAGANQSMNVTCAGKRDEDAENLGNFVMFPANGNIDLMYFPYYGKKFHVNYTQPLVAVKFLNVTPNVEVNVECRINAANIATDDERDKFAGRVAFKLRINKT | no change
ATP1B2 (Na/K-ATPase β2 subunit): N118Q (protein) parent chain: MVIQKEKKSCGQVVEEWKEFVWNPRTHQFMGRTGTSWAFILLFYLVFYGFLTAMFTLTMWVMLQTVSDHTPKYQDRLATPGLMIRPKTENLDVIVNVSDTESWDQHVQKLNKFLEPYNDSIQAQKNDVCRPGRYYEQPDNGVLNYPKRACQFNRTQLGNCSGIGDSTHYGYSTGQPCVFIKMNRVINFYAGANQSMNVTCAGKRDEDAENLGNFVMFPANGNIDLMYFPYYGKKFHVNYTQPLVAVKFLNVTPNVEVNVECRINAANIATDDERDKFAGRVAFKLRINKT | no change
ATP1B2 (Na/K-ATPase β2 subunit): N238Q (protein) parent chain: MVIQKEKKSCGQVVEEWKEFVWNPRTHQFMGRTGTSWAFILLFYLVFYGFLTAMFTLTMWVMLQTVSDHTPKYQDRLATPGLMIRPKTENLDVIVNVSDTESWDQHVQKLNKFLEPYNDSIQAQKNDVCRPGRYYEQPDNGVLNYPKRACQFNRTQLGNCSGIGDSTHYGYSTGQPCVFIKMNRVINFYAGANQSMNVTCAGKRDEDAENLGNFVMFPANGNIDLMYFPYYGKKFHVNYTQPLVAVKFLNVTPNVEVNVECRINAANIATDDERDKFAGRVAFKLRINKT | no change
ATP1B2 (Na/K-ATPase β2 subunit): N159Q (protein) parent chain: MVIQKEKKSCGQVVEEWKEFVWNPRTHQFMGRTGTSWAFILLFYLVFYGFLTAMFTLTMWVMLQTVSDHTPKYQDRLATPGLMIRPKTENLDVIVNVSDTESWDQHVQKLNKFLEPYNDSIQAQKNDVCRPGRYYEQPDNGVLNYPKRACQFNRTQLGNCSGIGDSTHYGYSTGQPCVFIKMNRVINFYAGANQSMNVTCAGKRDEDAENLGNFVMFPANGNIDLMYFPYYGKKFHVNYTQPLVAVKFLNVTPNVEVNVECRINAANIATDDERDKFAGRVAFKLRINKT | no change
ATP1B2 (Na/K-ATPase β2 subunit): N250Q (protein) parent chain: MVIQKEKKSCGQVVEEWKEFVWNPRTHQFMGRTGTSWAFILLFYLVFYGFLTAMFTLTMWVMLQTVSDHTPKYQDRLATPGLMIRPKTENLDVIVNVSDTESWDQHVQKLNKFLEPYNDSIQAQKNDVCRPGRYYEQPDNGVLNYPKRACQFNRTQLGNCSGIGDSTHYGYSTGQPCVFIKMNRVINFYAGANQSMNVTCAGKRDEDAENLGNFVMFPANGNIDLMYFPYYGKKFHVNYTQPLVAVKFLNVTPNVEVNVECRINAANIATDDERDKFAGRVAFKLRINKT | no change
ATP1B2 (Na/K-ATPase β2 subunit): N153Q (protein) parent chain: MVIQKEKKSCGQVVEEWKEFVWNPRTHQFMGRTGTSWAFILLFYLVFYGFLTAMFTLTMWVMLQTVSDHTPKYQDRLATPGLMIRPKTENLDVIVNVSDTESWDQHVQKLNKFLEPYNDSIQAQKNDVCRPGRYYEQPDNGVLNYPKRACQFNRTQLGNCSGIGDSTHYGYSTGQPCVFIKMNRVINFYAGANQSMNVTCAGKRDEDAENLGNFVMFPANGNIDLMYFPYYGKKFHVNYTQPLVAVKFLNVTPNVEVNVECRINAANIATDDERDKFAGRVAFKLRINKT | no change
ATP1B2 (Na/K-ATPase β2 subunit): N193Q (protein) parent chain: MVIQKEKKSCGQVVEEWKEFVWNPRTHQFMGRTGTSWAFILLFYLVFYGFLTAMFTLTMWVMLQTVSDHTPKYQDRLATPGLMIRPKTENLDVIVNVSDTESWDQHVQKLNKFLEPYNDSIQAQKNDVCRPGRYYEQPDNGVLNYPKRACQFNRTQLGNCSGIGDSTHYGYSTGQPCVFIKMNRVINFYAGANQSMNVTCAGKRDEDAENLGNFVMFPANGNIDLMYFPYYGKKFHVNYTQPLVAVKFLNVTPNVEVNVECRINAANIATDDERDKFAGRVAFKLRINKT | no change
